The values below come from publication PMC7801428 (2021).

This assay has as its target SARS-CoV-2 RBD (residues V320 to G550, strain Wuhan-Hu-1), C-terminal His tag (SARS-CoV-2, UniProt P0DTC2 320-550). Briefly: BLI.

B1: human-mouse chimeric antibody 3C1 (c3C1) (antibody, V domains shown)
VH: EVQLQESGPSLVKPSQTLSLTCSVTGDSITNGYWNWIRKFPGNKLEYMGYISYSGSTYYSPSLKSRISITRDTSKNQHYLQLNSVTSEDTATYYCASDYHGSKYYFDYWGQGTTLTVSS
VL: DIVMTQSHKFMSTSVGHRVSITCKASQDVGNDVAWYQQKPGQSPKLLIYWASTRHTGVPDRFTGSGSGTDFTLTISNVQSEDLADYFCQQYNRYPYTFGGGTKLEIK
For the molecule B1, the koff (in general, the first-order rate constant of dissociation) was below 1e-07 s⁻¹.
